According to patent publication US7090834B1, “Vascular endothelial cell growth factor variants and uses thereof” (Genentech, Inc., priority 1999, dated 2006):

How the values were obtained:
[1] = molecular target: Flt-1 receptor; experiment: RIA assay, binding to FLT-1 receptor
Protocol: Various assays were conducted to examine the properties and biological activities of the I43A/I46A/Q79A/I83A Flt-sel variant. For example, quantitative binding measurements were carried out using a soluble radio-immuno receptor-binding assay (RIA), as described in Example 6 above.

[2] = system: PLC-gamma in HUVEC cells; experiment: PLC-gamma tyrosine phosphorylation after immunoprecipitation; format: cell-based, human; conditions: 20 ng/ml, 5 minutes, FIG. 13A
Protocol: In order to determine which VEGF receptor(s) are involved in PLC-gamma activation in primary endothelial cells, HUVEC cells were treated with native VEGF or VEGF receptor-selective variants and PLC-gamma phosphorylation was assessed after immunoprecipitation.
Passage 4–7 HUVEC cells (Cell Systems, Kirkland, Wash.) were grown in Cell System's complete medium (AZ0-500) with 10% fetal calf serum and growth factors on gelatin-coated dishes and made quiescent by 14 hour starvation in 0.2% serum. […] The cells were then lysed in 0.5–1 ml RIPA buffer containing 0.1 mM sodium orthovanadate, 5 mM para-nitrophenylphosphate, 10 mM sodium fluoride, 0.5 micromolar okadaic acid and a protease inhibitor cocktail (Roche MB 1836145). PLC-gamma was then immunoprecipitated from whole cell lysates using monoclonal antibodies (Upstate Biotechnology) and analyzed for tyrosine phosphorylation (FIG. 13A) or lysates were immunoprecipitated with monoclonal antibodies against p85 PI 3′-kinase (purchased from Transduction Labs (P13020) and Neomarkers (MS424-P)) and tested for phosphotyrosine using phosphotyrosine antibodies PY20 or E120H (Transduction Labs) (FIG. 13B). Immunoprecipitation was conducted as follows. Protein A/G beads (Pierce) were blocked for nonspecific protein binding in 50 mM HEPES pH 7.2, 0.1% TX-100, 150 mM NaCl and 1 mg/ml ovalbumin for 30 minutes. Antibodies were precoupled in the same buffer for 1 hour at 4° C. with head over end rotation and beads were washed 3 times in lysis buffer. Beads were added to the lysates and rotated overnight. Beads were washed sequentially in 50 mM Tris pH 7.6, 150 mM NaCl, 1% TX-100, 1 mM CaCl2; 50 mM Tris pH 7.6, 500 mM NaCl, 0.1% TX-100, 1 mM CaCl2 and 50 mM Tris pH 7.6, 150 mM NaCl, 0.05% TX-100, 1 mM CaCl2. Beads were then resuspended in 2× sample buffer and boiled. Supernatants were applied directly to 4–12% Tris-Glycine gradient gels (Novex).

[3] = system: HUVEC cells; experiment: HUVEC migration, modified Boyden chamber assay; format: cell-based, human
Protocol: One of the central aspects of VEGF action on endothelial cells is its ability to act as a chemoattractant and stimulate the migration of endothelial cells. HUVEC cell migration was analyzed in a modified Boyden chamber assay as follows.
Falcon 8.0 micron filter inserts (Falcon 3097) were coated with type 1 collagen (VITROGEN, COHESION). HUVEC (obtained from Cell Systems, <passage 8) were grown in Cell Systems complete media (4ZO-500) with 10% FCS. Cells were trypsinized and transferred to EBM (Endothelial basal media, Clonetics) with 0.1% BSA for the assay. Cells were plated at 5×10^4 per upper chamber. […] The assay was routinely an 18 hour assay at 37° C. For the LY294002 inhibitor experiments, cells were allowed to adhere for 30 minutes prior to addition of the inhibitor. 20 minutes after inhibitor addition, VEGF was added to the bottom well and the assay was allowed to proceed for only 4 hours to avoid the occurrence of apoptosis associated with the treatment of these primary cells with LY294002 (purchased from Biomol).
Cells were removed from the upper side of the membrane by scraping with a polyurethane swab and then the remaining cells on the bottom side of the membrane were fixed with methanol. Cells were stained with Yo-Pro Iodide nuclear stain (Molecular Probes) and counted under low power fluorescence using an Image-Pro cell recognition program.

[4] = system: corneal angiogenesis; experiment: Corneal pocket angiogenesis assay; format: in vivo, Sprague-Dawley rats; conditions: rat, pellet with 200 ng growth factor, day 6, FIGS. 15A and 15B
Protocol: Assays were performed as described by Polyerini et al., Methods Enzymol., 198:440–450 (1991) with the following modifications. Sprague-Dawley rats were anesthetized using a gas (isoflurane)/injectable ketamine (80 mg/kg)/xylazine (15 mg/kg) combination. The eyes were gently proptosed and secured in place using nontraumatic forceps. With a #15 blade, a 1.5 mm incision was made slightly below the center of the cornea. Using a micro spatula (ST80017, ASSI), the incision was carefully blunt-dissected through the stroma toward the outer canthus of the eye. […] After surgery, the eyes were coated with gentamicin ointment. At day 6, the animals were injected with high molecular weight FITC-dextran and euthanized to allow for visualization of the vasculature. Corneal whole mounts were made of the enucleated eyes and measurements of the neovascular area completed using computer-assisted image analysis (Image-Pro Plus).

[5] = molecular target: T1, KDR receptor (soluble radio-immuno receptor-binding assay) (UniProt P35968 20-764, limits assumed); experiment: soluble radio-immuno receptor-binding assay (RIA)
T1 construct: the receptor construct is not described
Protocol: For example, quantitative binding measurements were carried out using a soluble radio-immuno receptor-binding assay (RIA), as described in Example 6 above.

[6] = system: ERK1 and ERK2 in HUVEC cells; experiment: Activation of MAP kinases, ERK1/ERK2 phosphorylation Western blot; format: cell-based, human; conditions: 50 ng/ml or 10 ng/ml, 5 minutes, FIG. 12A
Protocol: Passage 4–7 HUVEC cells (Cell Systems, Kirkland, Wash.) were grown in Cell System's complete medium (AZ0-500) with 10% fetal calf serum and growth factors on gelatin-coated dishes and made quiescent by 14 hour starvation in 0.2% serum. […] The HUVEC cells were then lysed in 0.5–1 ml RIPA buffer containing 0.1 mM sodium orthovanadate, 5 mM para-nitrophenylphosphate, 10 mM sodium fluoride, 0.5 micromolar okadaic acid and a protease inhibitor cocktail (Roche MB 1836145). Western blot analysis was then conducted, probing for phosphorylated ERK1 or ERK2 using anti-phospho ERK antiserum (Promega).

[7] = molecular target: gD-KDR receptor on CHO cells (UniProt P35968 20-1356); experiment: cell-based or functional assay
[8] = molecular target: KDR receptor on HUVEC cells (human, UniProt P35968 20-1356); experiment: cell-based or functional assay
[9] = molecular target: KDR receptor (Homo sapiens, UniProt P35968); experiment: KDR receptor binding ELISA (inhibition of biotinylated native VEGF (8–109) binding); conditions: second figure of the cell, variant midpoint concentration divided by that of native VEGF
Protocol: (§1) Receptor binding assays were performed in 96-well immunoplates (Maxisorp, Nunc-Immunoplate, Nalge Nunc International, Rochester, N.Y.). Each well was coated with 100 μl of a solution containing 8 μg/ml of a monoclonal antibody to KDR known as MAKD5 (Genentech, South San Francisco, Calif.) in 50 mM carbonate buffer at pH 9.6 and incubated at 4° C. overnight. The supernatant was discarded, the wells were washed three times in washing buffer (0.05% Tween 20 in PBS), and the plate was blocked (150 μl per well) with block buffer (0.5% BSA, 0.01% thimerosal in PBS) at room temperature for one hour. The supernatant was discarded, and the wells were washed.
(§2) Aliquots of this mixture (100 μl) were added to the precoated microtiter wells and the plate was incubated for 1 hour at room temperature. […] The wells were then incubated with 3, 3′, 5,5′-tetramethyl benzidine (0.2 gram/liter; Kirkegaard & Perry Laboratories, Gaithersburg, Md.) for about 10 minutes at room temperature. Absorbance was read at 450 nm on a Vmax plate reader (Molecular Devices, Menlo Park, Calif.).
(§3) Titration curves were fit with a four-parameter nonlinear regression curve-fitting program (KaleidaGraph, Synergy Software, Reading, Pa.).

[10] = molecular target: T1, KDR receptor (soluble radio-immuno …); experiment: RIA (essentially as Muller et al. 1997)
[11] = molecular target: T2, FLT-1 receptor (soluble radio-immuno receptor-binding assay) (UniProt P17948 27-758, limits assumed); experiment: RIA (essentially as Muller et al. 1997)
T2 construct: the receptor construct is not described

[12] = molecular target: T3, Flt-IgG (UniProt P17948 27-758, limits assumed); experiment: competition ELISA vs biotinylated native VEGF for Flt-IgG
T3 construct: also called chimeric Flt-human Fc molecule; not shown: human IgG Fc
Protocol: Receptor binding assays were performed in 96-well immunoplates (Maxisorp, Nunc-Immunoplate, Nalge Nunc International, Rochester, N.Y.). Each well was coated with 100 μl of a solution containing 2 μg/ml of rabbit F(ab')2 to human IgG Fc (Jackson ImmunoResearch, West Grove, Pa.) in 50 mM carbonate buffer at pH 9.6 and incubated at 4° C. overnight. The supernatant was then discarded, the wells were washed three times in washing buffer (0.05% Tween 20 in PBS), and the plate was blocked (150 μl per well) with block buffer (0.5% BSA, 0.01% thimerosal in PBS) at room temperature for one hour. The supernatant was discarded, and the wells were washed.
The wells were filled with 100 μl of a solution containing Flt-IgG (a chimeric Flt-human Fc molecule) at 50 ng/ml in assay buffer (0.5% BSA, 0.05% Tween 20 in PBS). The wells were incubated at room temperature for 1 hour and then washed three times in wash buffer (0.05% Tween 20 in PBS).
as §2, with “the” for “this”, “2 hours” for “1 hour”, “3', 5,5'-tetramethyl” for “3′, 5,5′-tetramethyl”, “g/liter,” for “gram/liter;”

[13] = molecular target: T4, KDR (1-3) (UniProt P35968 20-327, limits assumed); experiment: competition ELISA vs biotinylated native VEGF (8-109) for KDR (1-3)
T4 construct: domain: domains 1 to 3; Genentech reagent; also called KDR (1-3) monomer; domains 1 to 3 of KDR
Protocol: as §1
as §2, with “3', 5,5'-tetramethyl” for “3′, 5,5′-tetramethyl”
as §3

T3 sequence (P17948 27-758 limits assumed): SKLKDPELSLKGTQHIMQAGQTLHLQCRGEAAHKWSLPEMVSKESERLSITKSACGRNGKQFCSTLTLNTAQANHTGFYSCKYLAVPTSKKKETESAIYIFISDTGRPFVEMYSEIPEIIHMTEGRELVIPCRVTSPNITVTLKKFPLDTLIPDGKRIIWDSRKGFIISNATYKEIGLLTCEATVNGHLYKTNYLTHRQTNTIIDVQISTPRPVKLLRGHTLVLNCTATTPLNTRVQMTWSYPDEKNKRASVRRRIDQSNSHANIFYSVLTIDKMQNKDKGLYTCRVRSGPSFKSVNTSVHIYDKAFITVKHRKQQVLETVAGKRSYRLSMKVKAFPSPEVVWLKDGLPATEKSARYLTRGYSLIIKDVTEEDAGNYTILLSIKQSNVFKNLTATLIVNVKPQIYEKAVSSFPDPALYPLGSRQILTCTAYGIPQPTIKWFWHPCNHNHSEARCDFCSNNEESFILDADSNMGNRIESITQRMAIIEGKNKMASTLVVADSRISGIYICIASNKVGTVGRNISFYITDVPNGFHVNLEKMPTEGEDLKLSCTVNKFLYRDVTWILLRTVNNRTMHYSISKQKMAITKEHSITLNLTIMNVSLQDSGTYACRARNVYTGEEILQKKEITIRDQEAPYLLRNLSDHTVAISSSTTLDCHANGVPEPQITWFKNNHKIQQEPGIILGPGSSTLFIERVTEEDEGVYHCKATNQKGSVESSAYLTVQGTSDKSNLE
Chain of Flt-1 receptor (P17948 27-331 limits assumed): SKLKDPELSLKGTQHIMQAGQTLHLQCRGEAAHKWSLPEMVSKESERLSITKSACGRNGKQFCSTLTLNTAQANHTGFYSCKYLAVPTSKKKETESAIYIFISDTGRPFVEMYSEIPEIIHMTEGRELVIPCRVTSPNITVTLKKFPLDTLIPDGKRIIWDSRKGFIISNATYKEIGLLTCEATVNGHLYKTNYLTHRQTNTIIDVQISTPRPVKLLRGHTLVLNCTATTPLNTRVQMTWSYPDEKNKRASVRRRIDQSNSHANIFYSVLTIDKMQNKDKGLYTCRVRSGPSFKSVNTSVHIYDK
Chain of KDR receptor on HUVEC cells (P35968 20-1356): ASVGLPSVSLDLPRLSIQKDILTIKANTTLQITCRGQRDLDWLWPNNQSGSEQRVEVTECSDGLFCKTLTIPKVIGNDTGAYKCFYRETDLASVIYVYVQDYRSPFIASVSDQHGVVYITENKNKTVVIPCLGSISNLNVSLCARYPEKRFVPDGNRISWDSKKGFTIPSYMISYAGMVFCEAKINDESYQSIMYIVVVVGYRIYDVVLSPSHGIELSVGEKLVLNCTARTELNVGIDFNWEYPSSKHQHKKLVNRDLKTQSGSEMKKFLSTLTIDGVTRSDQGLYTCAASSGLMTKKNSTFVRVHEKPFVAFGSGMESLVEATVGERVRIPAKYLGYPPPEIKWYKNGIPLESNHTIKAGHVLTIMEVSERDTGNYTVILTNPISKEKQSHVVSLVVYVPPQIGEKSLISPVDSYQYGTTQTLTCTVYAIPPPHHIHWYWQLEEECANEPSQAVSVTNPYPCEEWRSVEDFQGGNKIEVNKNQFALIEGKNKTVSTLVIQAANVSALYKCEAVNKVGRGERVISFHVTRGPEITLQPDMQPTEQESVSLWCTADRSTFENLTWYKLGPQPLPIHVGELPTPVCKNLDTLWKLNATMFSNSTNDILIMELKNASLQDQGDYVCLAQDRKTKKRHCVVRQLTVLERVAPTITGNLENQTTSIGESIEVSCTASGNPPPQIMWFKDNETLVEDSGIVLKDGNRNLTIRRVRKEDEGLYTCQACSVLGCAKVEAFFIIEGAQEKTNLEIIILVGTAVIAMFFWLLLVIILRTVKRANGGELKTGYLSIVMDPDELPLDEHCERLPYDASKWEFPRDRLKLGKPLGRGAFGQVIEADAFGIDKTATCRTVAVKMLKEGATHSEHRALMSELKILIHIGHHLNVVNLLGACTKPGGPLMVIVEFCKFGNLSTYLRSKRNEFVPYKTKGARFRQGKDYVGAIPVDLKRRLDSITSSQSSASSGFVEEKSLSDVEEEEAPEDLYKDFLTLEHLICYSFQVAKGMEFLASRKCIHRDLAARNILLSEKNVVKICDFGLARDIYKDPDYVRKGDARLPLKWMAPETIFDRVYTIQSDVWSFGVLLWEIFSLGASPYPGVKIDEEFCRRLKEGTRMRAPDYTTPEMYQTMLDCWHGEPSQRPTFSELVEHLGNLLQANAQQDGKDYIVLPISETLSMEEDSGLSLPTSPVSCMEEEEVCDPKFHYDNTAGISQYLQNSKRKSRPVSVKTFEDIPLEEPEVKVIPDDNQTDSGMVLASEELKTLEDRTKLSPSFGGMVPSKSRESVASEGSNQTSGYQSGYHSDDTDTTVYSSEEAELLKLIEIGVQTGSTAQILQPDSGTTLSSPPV
T1 sequence (P35968 20-764 limits assumed): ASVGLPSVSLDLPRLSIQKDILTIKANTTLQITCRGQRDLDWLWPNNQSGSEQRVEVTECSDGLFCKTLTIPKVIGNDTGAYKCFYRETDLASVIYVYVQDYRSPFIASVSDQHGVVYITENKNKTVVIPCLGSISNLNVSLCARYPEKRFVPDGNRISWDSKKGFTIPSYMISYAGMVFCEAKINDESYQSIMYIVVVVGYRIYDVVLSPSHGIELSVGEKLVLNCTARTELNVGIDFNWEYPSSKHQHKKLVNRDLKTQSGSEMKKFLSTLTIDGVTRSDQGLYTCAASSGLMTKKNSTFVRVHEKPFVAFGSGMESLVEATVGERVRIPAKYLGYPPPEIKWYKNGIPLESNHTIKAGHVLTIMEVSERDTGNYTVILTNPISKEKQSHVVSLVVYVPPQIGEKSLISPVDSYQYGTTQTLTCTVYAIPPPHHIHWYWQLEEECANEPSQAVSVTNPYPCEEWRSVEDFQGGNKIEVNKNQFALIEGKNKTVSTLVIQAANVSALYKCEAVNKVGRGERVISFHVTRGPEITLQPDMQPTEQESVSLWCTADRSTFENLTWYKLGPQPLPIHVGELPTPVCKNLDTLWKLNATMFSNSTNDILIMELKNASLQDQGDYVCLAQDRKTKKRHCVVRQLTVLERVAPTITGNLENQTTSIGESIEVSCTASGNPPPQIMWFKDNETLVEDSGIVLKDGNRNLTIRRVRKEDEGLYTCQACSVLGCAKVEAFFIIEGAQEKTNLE
Chain of KDR receptor (P35968 20-327 limits assumed): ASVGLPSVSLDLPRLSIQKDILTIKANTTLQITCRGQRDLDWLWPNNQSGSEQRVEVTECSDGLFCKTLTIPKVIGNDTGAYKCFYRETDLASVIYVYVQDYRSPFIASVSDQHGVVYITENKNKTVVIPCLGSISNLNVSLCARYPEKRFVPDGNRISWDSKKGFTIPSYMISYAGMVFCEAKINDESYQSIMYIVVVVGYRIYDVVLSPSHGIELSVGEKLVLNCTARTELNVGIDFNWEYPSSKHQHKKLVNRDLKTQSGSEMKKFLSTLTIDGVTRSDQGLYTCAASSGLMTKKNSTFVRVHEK
T4 sequence (P35968 20-327 limits assumed): as above
T2 sequence (P17948 27-758 limits assumed): as the sequence (P17948 27-758 limits assumed) above

Native VEGF 165: 165-amino acid native vascular endothelial cell growth factor [reference compound]
Kd ([1]; Table 6, read-out: Binding affinity, FLT-1 Receptor (RIA), value in parentheses): 0.037 nM | PLC-gamma phosphorylation [2]: able to stimulate PLC-gamma phosphorylation to a similar extent

O=c1cc(N2CCOCC2)oc2c(-c3ccccc3)cccc12 [LY 294002, reference compound]
inhibition of HUVEC cell migration ([3]; highest concentration of inhibitor, migration in response to native VEGF, 4 hours, FIG. 14B): 56%

B1: PlGF: VEGF-related molecule that binds Flt-1 but not KDR (R & D Systems) (protein)
chain: AVPPQQWALSAGNGSSEVEVVPFQEVWGRSYCRALERLVDVVSEYPSEVEHMFSPSCVSLLRCTGCCGDENLHCVPVETANVTMQLLKIRSGDRPSYVELTFSQHVRCECRPLREKMKPERCGDAVPRR
induction of corneal angiogenesis [4]: only a marginal response

B2: Flt-sel (I43A/I46A/Q79A/I83A, 1-109 short form) (ligand, human, UniProt P15692-4 27-135, looked up)
chain: APMAEGGGQNHHEVVKFMDVYQRSYCHPIETLVDIFQEYPDEAEYAFKPSCVPLMRCGGCCNDEGLECVPTEESNITMAIMRAKPHQGQHIGEMSFLQHNKCECRPKKD
notes: also called Flt-1-sel; Flt-1 selective variant
fold reduced KDR-binding affinity (against native VEGF (8-109)) [5]: ≥ 470 fold

B3: Flt-1 selective VEGF variant: Flt-1 selective variant comprising a full length 165 sequence with I43A/I46A/Q79A/I83A (protein)
chain: APMAEGGGQNHHEVVKFMDVYQRSYCHPIETLVDIFQEYPDEAEYAFKPSCVPLMRCGGCCNDEGLECVPTEESNITMAIMRAKPHQGQHIGEMSFLQHNKCECRPKKD
phosphorylation of ERK1 and ERK2 [6]: barely detectable phosphorylation of ERK2 | PLC-gamma phosphorylation [2]: did not increase PLC-gamma phosphorylation over background levels | promotion of HUVEC cell migration ([3]; 18 hour assay, FIG. 14A): unable to increase cell migration over background levels | induction of corneal angiogenesis [4]: unable to stimulate angiogenesis over control levels

B4: LK-VRB-1s* (ligand, human, UniProt P15692-4 27-135, looked up)
chain: APMAEGGGQNHHEVVKFEDVLRRSSCHPIETLVDIFQEYPDEIEYIFKPSCVPLMRCGGCCNDEGLECVPTEESNITMQIMRIKPHQGQHIGEMSFLQHNKCECRPKKD
Phosphorylation-Inducing Activity (KIRA assay) [7]: 0.5 ratio to native VEGF (8-109) | Endothelial Cell Proliferation Activity (HUVEC, 3H-thymidine) [8]: 0.2 ratio to native VEGF (8-109) | Relative Binding Affinity, KDR Receptor: ratio to native VEGF (8–109) [9]: 1 nM/1 | Relative Binding Affinity, FLT-1 Receptor (RIA) ([1]; relative to native VEGF 165 = 1): 14,000 | relative binding affinity (ratio to native VEGF 165) [10]: 20 ratio | relative binding affinity (ratio to native VEGF 165) [11]: 14000 ratio | relative binding affinity (ratio to native VEGF (8-109)) [12]: 6000 ratio | relative binding affinity (ratio to native VEGF (8-109)) [13]: 1 ratio

B5: native VEGF (8-109) (ligand, human, UniProt P15692 214-315, looked up)
chain: GQNHHEVVKFMDVYQRSYCHPIETLVDIFQEYPDEIEYIFKPSCVPLMRCGGCCNDEGLECVPTEESNITMQIMRIKPHQGQHIGEMSFLQHNKCECRPKKD
notes: Homodimer
Phosphorylation-Inducing Activity (KIRA assay) [7]: 2 nM | Endothelial Cell Proliferation Activity (HUVEC, 3H-thymidine) [8]: 0.5 nM | IC50 [12]: 0.42 nM
